Assay results: US20090112150A1, “CAVITATION ENHANCED TREATMENT THROUGH LOCAL DELIVERY” (IMARX THERAPEUTICS, INC., priority 2004, published 2009)

Assay: Loading of thrombolytic drugs into microbubbles, particle sizing/counting on Accusizer 770
Type: physicochemical
Details: MX115 microbubbles
Description: MX115 was activated in the vial. Different concentrations of thrombolytic drugs, Streptokinase (Sigma, Milwaukee, Wis.) and t-PA (Genentech, South San Francisco, Calif.), were added to the vial and incubated with the microbubbles for 5 minutes before analyzing the mixtures using a Model 770 Accusizer (Particle Sizing Systems, Santa Barbara, Calif.). […] As much as 5 mg of the drug could be loaded into the MRX 115 microbubbles.

[1] = protein loading in microbubbles 0.1 mg, 5 minutes incubation
[2] = protein loading in microbubbles 1 mg, 5 minutes incubation
[3] = protein loading in microbubbles 5 mg, 5 minutes incubation
[4] = protein loading in microbubbles 0.010 mg, 5 minutes incubation

| Substance | Number of particles/mL [1] | Number wt mean [1] | Volume wt mean [1] | Number of particles/mL [2] | Number wt mean [2] | Volume wt mean [2] | Number of particles/mL [3] | Number wt mean [3] | Volume wt mean [3] | Number of particles/mL (After 24 hrs) | Number wt mean (After 24 hrs) | Volume wt mean (After 24 hrs) | Number of particles/mL [4] | Number wt mean [4] | Volume wt mean [4] |
| --- | --- | --- | --- | --- | --- | --- | --- | --- | --- | --- | --- | --- | --- | --- | --- |
| Streptokinase | 1.1 × 10^9 particles/mL | 1.79 μ | 13.6 μ | 1.1 × 10^9 particles/mL | 1.87 μ | 17.1 μ | 0.5 × 10^9 particles/mL | 2.44 μ | 52.9 μ | – | – | – | – | – | – |
| Tissue Plasminogen Activator [tPA] | – | – | – | – | – | – | – | – | – | 1.3 × 10^9 particles/mL | 2.20 μ | 24.4 μ | 1.1 × 10^9 particles/mL | 2.27 μ | 23.5 μ |
